Experimental data from patent US20250163127A1.
Several values for one entry are separate records, joined by “and”; a condition that tells them apart may be missing. Identical values can stand only once.

How the values were obtained:
[1] = molecular target: CTLA-4 (Homo sapiens (Human)) (UniProt P16410); assay: flow cytometry, transfected cells
[2] = molecular target: CD28 (human) (UniProt P10747); assay: flow cytometry, transfected cells
[3] = molecular target: PD-L1 (human); assay: flow cytometry, cells expressing PD-L1
Sequence of PD-L1 (human) (chain, as listed by the source): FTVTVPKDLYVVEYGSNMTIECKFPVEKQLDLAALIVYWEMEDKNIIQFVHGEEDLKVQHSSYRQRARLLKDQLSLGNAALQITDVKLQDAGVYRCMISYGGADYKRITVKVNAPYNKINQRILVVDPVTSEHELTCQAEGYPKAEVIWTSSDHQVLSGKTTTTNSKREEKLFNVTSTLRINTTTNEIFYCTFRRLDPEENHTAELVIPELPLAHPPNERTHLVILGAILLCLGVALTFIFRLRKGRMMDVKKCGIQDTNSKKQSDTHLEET

[4] = molecular target: CD28 (human) (UniProt P10747); assay: flow cytometry, Jurkat cells (CD28)
[5] = molecular target: CTLA-4 (human); assay: flow cytometry, CHO cells expressing CTLA4
Sequence of CTLA-4 (human) (chain, as listed by the source): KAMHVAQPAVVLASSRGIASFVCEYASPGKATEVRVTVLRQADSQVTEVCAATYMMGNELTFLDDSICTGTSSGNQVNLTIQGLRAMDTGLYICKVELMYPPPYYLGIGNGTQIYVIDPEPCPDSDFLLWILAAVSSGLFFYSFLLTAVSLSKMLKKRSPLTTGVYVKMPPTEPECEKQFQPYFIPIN

[6] = molecular target: PD-L1 (human); assay: flow cytometry, CHO cells expressing PD-L1
[7] = molecular target: CD28 (human) (UniProt P10747); assay: flow cytometry, cells expressing CD28
[8] = molecular target: T1, CD96 (human) (UniProt P40200); assay: flow cytometry, transfected HEK293 cells
T1 sequence: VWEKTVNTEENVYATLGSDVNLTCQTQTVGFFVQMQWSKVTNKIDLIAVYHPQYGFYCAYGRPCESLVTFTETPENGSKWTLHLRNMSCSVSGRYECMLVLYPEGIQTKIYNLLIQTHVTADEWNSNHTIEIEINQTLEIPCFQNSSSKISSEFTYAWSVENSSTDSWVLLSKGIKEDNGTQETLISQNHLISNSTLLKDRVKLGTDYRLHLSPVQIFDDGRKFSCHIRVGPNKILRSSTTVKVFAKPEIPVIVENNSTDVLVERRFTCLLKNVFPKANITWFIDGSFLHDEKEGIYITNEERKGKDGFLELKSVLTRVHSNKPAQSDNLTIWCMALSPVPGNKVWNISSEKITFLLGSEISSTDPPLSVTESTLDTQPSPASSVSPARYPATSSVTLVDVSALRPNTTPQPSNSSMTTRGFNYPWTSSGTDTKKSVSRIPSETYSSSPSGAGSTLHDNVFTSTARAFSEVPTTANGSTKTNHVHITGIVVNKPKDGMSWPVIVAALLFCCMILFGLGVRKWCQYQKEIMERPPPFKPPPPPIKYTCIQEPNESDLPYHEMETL

[9] = molecular target: T2, CD226 (human) (UniProt Q15762); assay: flow cytometry, transfected HEK293 cells
T2 sequence: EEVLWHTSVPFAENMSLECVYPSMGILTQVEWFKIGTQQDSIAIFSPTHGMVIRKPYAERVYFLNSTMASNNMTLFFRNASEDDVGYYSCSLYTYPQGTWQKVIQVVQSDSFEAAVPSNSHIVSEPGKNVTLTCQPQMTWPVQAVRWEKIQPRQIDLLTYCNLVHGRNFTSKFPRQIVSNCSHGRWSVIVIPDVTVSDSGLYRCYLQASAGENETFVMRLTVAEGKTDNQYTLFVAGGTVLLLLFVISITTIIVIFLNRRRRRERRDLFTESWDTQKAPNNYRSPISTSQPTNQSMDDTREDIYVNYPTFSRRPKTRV

[10] = molecular target: T3, TIGIT (human) (UniProt Q495A1); assay: flow cytometry, transfected HEK293 cells
T3 sequence: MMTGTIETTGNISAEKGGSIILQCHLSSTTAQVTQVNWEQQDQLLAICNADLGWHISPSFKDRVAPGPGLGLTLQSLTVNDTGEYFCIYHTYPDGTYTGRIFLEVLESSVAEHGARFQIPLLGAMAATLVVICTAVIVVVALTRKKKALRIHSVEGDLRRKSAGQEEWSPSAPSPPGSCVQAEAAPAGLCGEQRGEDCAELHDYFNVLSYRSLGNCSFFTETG

[11] = molecular target: CD112R (human) (UniProt Q6DKI7); assay: flow cytometry, transfected HEK293 cells
Sequence of CD112R (human) (Q6DKI7 whole entry): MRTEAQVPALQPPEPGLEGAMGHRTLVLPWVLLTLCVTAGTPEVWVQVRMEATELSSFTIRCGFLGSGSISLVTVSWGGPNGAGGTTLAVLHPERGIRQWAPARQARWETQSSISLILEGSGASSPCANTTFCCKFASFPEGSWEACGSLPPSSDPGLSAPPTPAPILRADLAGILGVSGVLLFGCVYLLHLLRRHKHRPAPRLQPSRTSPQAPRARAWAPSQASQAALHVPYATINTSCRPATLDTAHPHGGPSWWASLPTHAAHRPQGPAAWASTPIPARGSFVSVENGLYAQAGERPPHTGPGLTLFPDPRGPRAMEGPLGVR

Sequence of wild-type CD155 IgV-Fc (Fc fusion) (chain): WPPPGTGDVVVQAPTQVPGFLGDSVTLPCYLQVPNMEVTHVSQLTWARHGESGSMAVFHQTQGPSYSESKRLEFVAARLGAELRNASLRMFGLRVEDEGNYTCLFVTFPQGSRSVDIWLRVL
Sequence of WT CD80 (Fc fusion) (chain): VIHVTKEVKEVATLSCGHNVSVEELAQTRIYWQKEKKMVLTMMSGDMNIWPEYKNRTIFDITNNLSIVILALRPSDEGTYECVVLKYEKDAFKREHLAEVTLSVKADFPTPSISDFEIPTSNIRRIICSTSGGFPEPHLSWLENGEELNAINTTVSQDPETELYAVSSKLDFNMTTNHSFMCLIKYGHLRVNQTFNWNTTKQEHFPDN

## ICOSL-Fc N52D/N57A/Q100A (Fc fusion)
[1]
  MFI: 340000 MFI
[2]
  MFI: 138000 MFI

## ICOSL-Fc N52D/Q100S (Fc fusion)
[1]
  MFI: 333000 MFI
[2]
  MFI: 95700 MFI

## ICOSL-Fc N52G/N57P/Q100D (Fc fusion)
[1]
  MFI: 10200 MFI
[2]
  MFI: 5720 MFI

## ICOSL-Fc N52P/N57P (Fc fusion)
[2]
  MFI: 21000 MFI

## ICOSL-Fc N52R/N57F/Q100N (Fc fusion)
[1]
  MFI: 233000 MFI
[2]
  MFI: 161000 MFI

## ICOSL-Fc N52R/N57F/Q100P (Fc fusion)
[1]
  MFI: 504000 MFI
[2]
  MFI: 154000 MFI

## ICOSL-Fc N52R/N57F/Q100R (Fc fusion)
[1]
  MFI: 464000 MFI
[2]
  MFI: 185000 MFI

## ICOSL-Fc N52R/N57W (Fc fusion)
[1]
  MFI: 318000 MFI
[2]
  MFI: 137000 MFI

## ICOSL-Fc N52R/N57Y/Q100P (Fc fusion)
[1]
  MFI: 502000 MFI
[2]
  MFI: 133000 MFI

## ICOSL-Fc N52S/N57A/Q100A (Fc fusion)
[1]
  MFI: 233000 MFI
[2]
  MFI: 98200 MFI

## ICOSL-Fc N52S/N57L/Q100G (Fc fusion)
[1]
  MFI: 79400 MFI
[2]
  MFI: 71900 MFI

## ICOSL-Fc N52T/N57K/Q100P (Fc fusion)
[1]
  MFI: 78300 MFI
[2]
  MFI: 88700 MFI

## ICOSL-Fc N52T/N57Y/Q100A (Fc fusion)
[1]
  MFI: 341000 MFI
[2]
  MFI: 161000 MFI

## ICOSL-Fc N52V/N57L/Q100A (Fc fusion)
[1]
  MFI: 252000 MFI
[2]
  MFI: 132000 MFI

## WT CD80 (Fc fusion)
[3]
  MFI: 70 MFI

## variant CD80 A26E/E35D/M47L/A71G (Fc fusion)
[4]
  Fold change to WT CD80: 0.12 fold
  MFI at 33.3 nM: 2160 MFI
[5]
  MFI at 33.3 nM: 341000 MFI
[6]
  Fold change to WT CD80: 4.49 fold
  MFI at 33.3 nM: 53400 MFI

## variant CD80 E35D/A71G (Fc fusion)
[5]
  MFI at 33.3 nM: 184000 MFI
[6]
  MFI at 33.3 nM: 34100 MFI

## variant CD80 E35D/D46E/M47V/A71D (Fc fusion)
[6]
  MFI at 33.3 nM: 549 MFI

## variant CD80 E35D/D46E/M47V/A71D/D90G (Fc fusion)
[5]
  MFI at 33.3 nM: 275000 MFI
[6]
  MFI at 33.3 nM: 32400 MFI

## variant CD80 E35D/D46V/M47L/V68M/L85Q/E88D (Fc fusion)
[6]
  MFI at 33.3 nM: 137000 MFI

## variant CD80 E35D/K37E/M47V/N48D/L85Q/D90N (Fc fusion)
[6]
  MFI at 33.3 nM: 26500 MFI

## variant CD80 E35D/M38T/D46E/M47V/N48S (Fc fusion)
[6]
  MFI at 33.3 nM: 19400 MFI

## variant CD80 E35D/M38T/M43V/M47V/N48R/L85Q (Fc fusion)
[5]
  MFI at 33.3 nM: 204000 MFI
[6]
  MFI at 33.3 nM: 21800 MFI

## variant CD80 E35D/M42V/M47V/E52D/L85Q (Fc fusion)
[4]
  Fold change to WT CD80: 0.07 fold
  MFI at 33.3 nM: 1290 MFI
[5]
  Fold change to WT CD80: 1.44 fold
  MFI at 33.3 nM: 226000 MFI
[6]
  MFI at 33.3 nM: 11900 MFI

## variant CD80 E35D/M43I/M47V/K89N (Fc fusion)
[5]
  MFI at 33.3 nM: 278000 MFI
[6]
  MFI at 33.3 nM: 19200 MFI

## variant CD80 E35D/M47I/Y87Q/K89E (Fc fusion)
[4]
  MFI at 33.3 nM: 15500 MFI
[6]
  MFI at 33.3 nM: 29800 MFI

## variant CD80 E35D/M47L/A71G/L85Q (Fc fusion)
[4]
  MFI at 33.3 nM: 1440 MFI

## variant CD80 E35D/M47V/A71G (Fc fusion)
[4]
  MFI at 33.3 nM: 6360 MFI
[6]
  MFI at 33.3 nM: 36200 MFI

## variant CD80 E35D/M47V/A71G/E88D (Fc fusion)
[4]
  Fold change to WT CD80: 0.35 fold
  MFI at 33.3 nM: 6240 MFI
[5]
  MFI at 33.3 nM: 212000 MFI
[6]
  Fold change to WT CD80: 3.13 fold
  MFI at 33.3 nM: 37100 MFI

## variant CD80 E35D/M47V/N48T/L85Q (Fc fusion)
[4]
  MFI at 33.3 nM: 692 MFI
[6]
  MFI at 33.3 nM: 35500 MFI

## variant CD80 E35D/M47V/T62A/A71D/K93E (Fc fusion)
[5]
  MFI at 33.3 nM: 226000 MFI
[6]
  MFI at 33.3 nM: 693 MFI

## variant CD80 E35D/T41S/M43I/A71G/D90G (Fc fusion)
[5]
  MFI at 33.3 nM: 208000 MFI

## variant CD80 E35D/T41S/M43I/M47L/A71G (Fc fusion)
[4]
  MFI at 33.3 nM: 3100 MFI
[5]
  MFI at 33.3 nM: 209000 MFI

## variant CD80 E35D/T41S/M43I/M47V/A71G (Fc fusion)
[4]
  MFI at 33.3 nM: 2840 MFI
[6]
  MFI at 33.3 nM: 44400 MFI

## variant CD80 H18Y/A26E/E35D/M47L/L85Q/D90G (Fc fusion)
[4]
  Fold change to WT CD80: 0.2 fold
  MFI at 33.3 nM: 3540 MFI
[5]
  Fold change to WT CD80: 1.47 fold
  MFI at 33.3 nM: 231000 MFI
[6]
  MFI at 33.3 nM: 52400 MFI

## variant CD80 H18Y/E35D/N48K (Fc fusion)
[5]
  MFI at 33.3 nM: 261000 MFI

## variant CD80 I30V/E35D/M47V/A71G/A91V (Fc fusion)
[5]
  MFI at 33.3 nM: 205000 MFI
[6]
  MFI at 33.3 nM: 43900 MFI

## variant CD80 K36E/I67T/L70Q/A91G/I118V/T120S/T130A/N152T (Fc fusion)
[7]
  MFI: 8 MFI

## variant CD80 L70Q/A91G/N144D (Fc fusion)
[3]
  MFI: 6 MFI

## variant CD80 Q27H/E35D/D46V/M47L/A71G (Fc fusion)
[4]
  MFI at 33.3 nM: 10400 MFI

## variant CD80 Q33R/E35D/M47V/N48K/L85M/F92L (Fc fusion)
[5]
  MFI at 33.3 nM: 2680 MFI
[6]
  MFI at 33.3 nM: 21400 MFI

## variant CD80 V22D/E35D/M47L/L70M/L97Q (Fc fusion)
[4]
  MFI at 33.3 nM: 527 MFI

## variant CD80 V22D/E35D/M47L/L85Q (Fc fusion)
[4]
  MFI at 33.3 nM: 542 MFI
[5]
  MFI at 33.3 nM: 256000 MFI

## variant CD80 V22L/Q27H/E35D/M47I/A71G (Fc fusion)
[4]
  Fold change to WT CD80: 0.4 fold
  MFI at 33.3 nM: 7270 MFI
[5]
  Fold change to WT CD80: 0.96 fold
  MFI at 33.3 nM: 152000 MFI
[6]
  MFI at 33.3 nM: 43800 MFI

## variant CD80 Y31H/T41G/M43L/L70Q/A91G/I118V/T120S/I126V/T130A (Fc fusion)
[3]
  MFI: 6 MFI

## variant CD155 IgV-Fc, S52L, L104E (Fc fusion)
[8]
  MFI at 100 nM: 1830
  fold increase to WT ECD: 0.02 fold
[9]
  MFI at 100 nM: 2210
[10]
  MFI at 100 nM: 4320
[11]
  MFI at 100 nM: 1760
  fold increase to WT ECD: 0.99 fold

## variant CD155 IgV-Fc, S52Q (Fc fusion)
[8]
  MFI at 100 nM: 1820
  fold increase to WT ECD: 0.02 fold
[9]
  MFI at 100 nM: 2020
[10]
  MFI at 100 nM: 2290
[11]
  MFI at 100 nM: 1790
  fold increase to WT ECD: 1 fold

## variant CD155 IgV-Fc, T45Q, S52R, G111R (Fc fusion)
[8]
  MFI at 100 nM: 2340
  fold increase to WT ECD: 0.02 fold
[9]
  MFI at 100 nM: 2080
[10]
  MFI at 100 nM: 4090
[11]
  MFI at 100 nM: 1790
  fold increase to WT ECD: 1.01 fold

## wild-type CD155 IgV-Fc (Fc fusion)
[8]
  MFI at 100 nM: 1890 and 1680 and 3270
  fold increase to WT ECD: 0.02 fold
[9]
  MFI at 100 nM: 2320 and 2370 and 4690
[10]
  MFI at 100 nM: 1960 and 2180 and 4690
  fold increase to WT ECD: 0 fold
[11]
  MFI at 100 nM: 2170 and 1740 and 2940
  fold increase to WT ECD: 1.22 fold and 0.98 fold and 1.65 fold
